In the Human Domainome abundance scans (Beltran et al. 2025):
± gives the uncertainty stated by the source.

B1: Heterogeneous nuclear ribonucleoprotein U-like protein 2, residues 1 to 40; numbered along this chain, Q1KMD3 (parent)
chain: MEVKRLKVTELRSELQRRGLDSRGLKVDLAQRLQEALDAE

Variants of: B1
Assay: abundance fitness (aPCA) (normalised: wild type 0, dead -1); higher = more abundant; growth selection in yeast, the domain comes from the species named
Details: Homo sapiens

| Variant | abundance fitness |
| --- | --- |
| E40H | -0.545 ± 0.11 |
| E40L | -0.849 ± 0.082 |
| E40N | -0.253 ± 0.17 |
| E40D | -0.122 ± 0.12 |
| V27Q | -0.246 ± 0.17 |
| V27L | -0.087 ± 0.065 |
| V27T | -0.063 ± 0.078 |
| V27N | 0.049 ± 0.13 |
| V27G | -0.014 ± 0.05 |
| V27R | 0.049 ± 0.051 |
| V27W | -0.339 ± 0.084 |
| V27K | 0.087 ± 0.1 |
| V27D | 0.037 ± 0.074 |
| V27Y | -0.413 ± 0.14 |
| V27H | -0.009 ± 0.12 |
| V27I | -0.047 ± 0.071 |
| V27M | 0.002 ± 0.088 |
| V27P | 0.142 ± 0.11 |
| V27S | 0.086 ± 0.063 |
| V27E | 0.038 ± 0.058 |
| V27C | 0.09 ± 0.11 |
| A36L | -0.622 ± 0.075 |
| A36F | -0.278 ± 0.12 |
| A36S | -0.138 ± 0.055 |

| Variant | abundance fitness |
| --- | --- |
| A36G | -0.366 ± 0.05 |
| A36T | -0.196 ± 0.072 |
| A36M | -0.397 ± 0.069 |
| A36I | -0.314 ± 0.068 |
| A36N | -0.294 ± 0.1 |
| A36D | -0.371 ± 0.089 |
| A36V | -0.104 ± 0.053 |
| A36Q | -0.211 ± 0.06 |
| A36E | -0.213 ± 0.061 |
| A36W | -0.422 ± 0.065 |
| A36P | -0.407 ± 0.063 |
| A36R | -0.213 ± 0.049 |
| A36K | -0.354 ± 0.07 |
| A36Y | -0.231 ± 0.094 |
| A36C | -0.048 ± 0.071 |
| Q34D | -0.256 ± 0.074 |
| Q34A | -0.205 ± 0.055 |
| Q34V | -0.413 ± 0.058 |
| Q34R | -0.308 ± 0.051 |
| Q34K | -0.18 ± 0.081 |
| Q34T | -0.145 ± 0.062 |
| Q34M | -0.283 ± 0.064 |
| Q34Y | -0.515 ± 0.058 |
| Q34W | -0.624 ± 0.061 |

| Variant | abundance fitness |
| --- | --- |
| Q34P | -0.396 ± 0.066 |
| Q34C | -0.43 ± 0.081 |
| Q34G | -0.236 ± 0.049 |
| Q34S | -0.171 ± 0.059 |
| Q34I | -0.432 ± 0.11 |
| Q34E | -0.099 ± 0.058 |
| Q34N | -0.119 ± 0.15 |
| Q34F | -0.722 ± 0.09 |
| Q34L | -0.415 ± 0.055 |
| D38Y | -0.243 ± 0.083 |
| D38Q | -0.244 ± 0.089 |
| D38N | 0.113 ± 0.17 |
| D38W | -0.36 ± 0.059 |
| D38V | -0.231 ± 0.055 |
| D38G | -0.281 ± 0.054 |
| D38F | -0.33 ± 0.079 |
| D38S | -0.19 ± 0.054 |
| D38E | -0.013 ± 0.059 |
| D38R | -0.217 ± 0.05 |
| D38H | -0.531 ± 0.16 |
| D38L | -0.284 ± 0.061 |
| D38K | -0.185 ± 0.072 |
| D38I | -0.629 ± 0.43 |
| D38C | -0.157 ± 0.076 |

| Variant | abundance fitness |
| --- | --- |
| D38M | -0.169 ± 0.11 |
| D38A | -0.198 ± 0.057 |
| D38P | -0.402 ± 0.12 |
| D38T | -0.027 ± 0.063 |
| L37V | -0.078 ± 0.057 |
| L37S | -0.346 ± 0.054 |
| L37R | -0.223 ± 0.048 |
| L37I | 0.223 ± 0.14 |
| L37F | -0.112 ± 0.14 |
| L37P | -0.282 ± 0.074 |
| L37Q | -0.113 ± 0.061 |
| L37K | -0.199 ± 0.089 |
| L37M | 0.001 ± 0.059 |
| L37A | -0.337 ± 0.056 |
| L37H | -0.032 ± 0.11 |
| L37D | -0.24 ± 0.064 |
| L37E | -0.157 ± 0.066 |
| L37C | -0.276 ± 0.097 |
| L37N | -0.381 ± 0.083 |
| L37T | -0.179 ± 0.054 |
| L37G | -0.319 ± 0.049 |
| L37W | -0.266 ± 0.059 |
| R23C | 0.062 ± 0.078 |
| R23K | 0.082 ± 0.073 |

| Variant | abundance fitness |
| --- | --- |
| R23W | -0.185 ± 0.061 |
| R23V | -0.019 ± 0.058 |
| R23G | 0.091 ± 0.05 |
| R23Q | 0.114 ± 0.054 |
| R23D | 0.136 ± 0.067 |
| R23S | 0.167 ± 0.077 |
| R23N | 0.127 ± 0.07 |
| R23A | 0.158 ± 0.057 |
| R23L | -0.057 ± 0.056 |
| R23T | 0.225 ± 0.066 |
| R23M | -0.232 ± 0.13 |
| R23F | -0.137 ± 0.079 |
| R23E | 0.166 ± 0.065 |
| R23H | 0.092 ± 0.16 |
| R23Y | 0.041 ± 0.24 |
| R23P | -0.6 ± 0.096 |
| L33F | -0.733 ± 0.15 |
| L33I | -0.843 ± 0.15 |
| L33Q | -0.269 ± 0.074 |
| L33K | -0.164 ± 0.092 |
| L33T | -0.349 ± 0.096 |
| L33M | -0.239 ± 0.063 |
| L33R | -0.368 ± 0.048 |
| L33C | -0.403 ± 0.082 |

| Variant | abundance fitness |
| --- | --- |
| L33S | -0.243 ± 0.06 |
| L33P | -0.06 ± 0.064 |
| L33E | -0.085 ± 0.059 |
| L33H | -0.467 ± 0.099 |
| L33D | -0.239 ± 0.071 |
| L33G | -0.189 ± 0.048 |
| L33W | -0.626 ± 0.068 |
| L33N | -0.384 ± 0.097 |
| L29Y | -0.486 ± 0.098 |
| L29Q | -0.285 ± 0.07 |
| L29I | -0.189 ± 0.075 |
| L29R | -0.356 ± 0.063 |
| L29E | -0.174 ± 0.068 |
| L29S | -0.201 ± 0.073 |
| L29W | -0.853 ± 0.069 |
| L29P | -0.299 ± 0.067 |
| L29D | -0.104 ± 0.074 |
| L29A | -0.212 ± 0.05 |
| L29T | -0.083 ± 0.17 |
| L29C | -0.137 ± 0.063 |
| L29H | -0.346 ± 0.098 |
| L29K | -0.31 ± 0.09 |
| L29N | -0.352 ± 0.1 |
| L29F | -0.603 ± 0.16 |

| Variant | abundance fitness |
| --- | --- |
| L29G | -0.188 ± 0.051 |
| D28Q | -0.139 ± 0.066 |
| D28I | -0.326 ± 0.17 |
| D28W | -1.35 ± 0.11 |
| D28Y | -0.715 ± 0.17 |
| D28A | -0.09 ± 0.052 |
| D28G | -0.513 ± 0.061 |
| D28M | -0.382 ± 0.13 |
| D28F | -0.896 ± 0.12 |
| D28E | 0.086 ± 0.063 |
| D28V | -0.119 ± 0.057 |
| D28P | -0.681 ± 0.1 |
| D28S | -0.407 ± 0.065 |
| D28H | -0.19 ± 0.085 |
| D28L | -0.497 ± 0.055 |
| D28R | -0.342 ± 0.058 |
| D28K | -0.129 ± 0.073 |
| D28N | -0.248 ± 0.1 |
| S22V | 0.079 ± 0.059 |
| S22R | -0.402 ± 0.055 |
| S22T | 0.142 ± 0.07 |
| S22Q | 0 ± 0.064 |
| S22W | -0.011 ± 0.072 |
